The text below walks through data of publication doi:10.1101/2022.08.08.503162.

The test has as its target His6-tagged luminal domain (ectodomain) of human SR-B1, amino acids 33-444 (human) (UniProt Q8WTV0). Nature of the test: MST.

As a reminder, the Kd is the concentration at which binding is half-saturated. A low value points to tighter binding. “full-length APOA1-Milano expressed in 293F cells (protein A-APOA1-Milano construct) (from UniProt P02647 19-267) (natural protein)” yielded a Kd of 2060 nM.
